Experimental data as given in patent publication CN108640991A (JIANGSU QYUNS BIOMEDICINE CO LTD, dated 2018).

Molecular target: T1, 人白介素17A (Human Interleukin-17A) (human, UniProt Q16552 24-155)
T1 construct: also called hIL-17A; IL-17A
Assay: SPR Biacore T200, 25°C, antibody captured on Protein A CM5 chip, antigen in solution, 1:1 model

T1 sequence (Q16552 24-155): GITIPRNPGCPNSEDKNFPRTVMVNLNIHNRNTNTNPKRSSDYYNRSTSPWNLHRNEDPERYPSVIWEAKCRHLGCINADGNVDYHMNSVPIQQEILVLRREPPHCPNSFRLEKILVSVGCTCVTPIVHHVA

| Binder | Kd | koff | kon |
| --- | --- | --- | --- |
| 抗人白介素17A单克隆抗体QX002N (antibody, V domains shown, Humanised from rabbit clone 37#; also called 37-5) VH: EVQLQESGPGLVKPSETLSLTCTVSGIDLSLFYMSWIRQPPGKGLEWIGTIHEVASSYYASWAKGRVTISKDTSKNQFSLKLSSVTAADTAVYYCARETYSSRYPYPNIWGQGTLVTVSS VL: DIQMTQSPSSVSASVGDRVTITCQASQNIGGSLAWYQQKPGKAPKLLIYGASSLASGVPSRFSGSGSGTDFTLTISSLQPEDFATYYCQSYNTISTYGLAFGGGTKVEIK | 0.00707 nM | 2.36e-05 s⁻¹ | 3.35e+06 M⁻¹ s⁻¹ |
| Ixekizumab (antibody, V domains shown) VH: QVQLVQSGAEVKKPGSSVKVSCKASGYSFTDYHIHWVRQAPGQGLEWMGVINPMYGTTDYNQRFKGRVTITADESTSTAYMELSSLRSEDTAVYYCARYDYFTGTGVYWGQGTLVTVSS VL: DIVMTQTPLSLSVTPGQPASISCRSSRSLVHSRGNTYLHWYLQKPGQSPQLLIYKVSNRFIGVPDRFSGSGSGTDFTLKISRVEAEDVGVYYCSQSTHLPFTFGQGTKLEIKR | 0.0154 nM | 2.58e-05 s⁻¹ | 1.7e+06 M⁻¹ s⁻¹ |
